The results in this text go back to the RNAGym collection of RNA variant scans (doi:10.7554/elife.90254).

Sequences and labels used below:
B1: LINE1-full (parent)
chain: UACGUAGGUGGUUUUCCCCUGAUAGUGCUAAGGGGGCCUGGAAGUUUGGACUGGGCAGAGCUCAACACAGCGUGGCAAAGUGGCUGUGGCUAGACUGCCUCUCUGGAUUCCUCGUCACUCAGCAGGGCAUCUCUGAGAGAAAUGCC

The series covers variants of B1. In words: self-cleavage, relative activity (ratio to wild type); higher = more cleavage; in vitro, sequencing; the parent is a self-cleaving ribozyme.
Regarding UACGUAGGUGGUUUUCCCCUGAUAGUGCUAAGGGGGCCUGGAAGUUUGGACUGGGCAGAGCUCAACACAGCGUGGCAAAGUGGCUGUGGCUAGACUGCCCCUCUGGAUUCCUCGUCACUCAGCAGGGCAUCUCUAAGAGAAAUGCC [U100C G135A], the self-cleavage was 1.74.
UACGUAGGUGGUUUUCCCCUGAUAGUGCUAAGGGGGCCUGGAAGUUUGGACUGGGCAGAGCUCAACACAGCGUGGCAAAGUGGCUGUGGCUAGACUGCCCCUCUGGAUUCCUCGUCACUCAGCAGGCCAUCUCUGAGAGAAAUGCC [U100C G127C]: the self-cleavage amounted to 2.48.
In the case of UACGUAGGUGGUUUUCCCCUGAUAGUGCUAAGGGGGCCUGGAAGUUUGGACUGGGCAGAGCUCAACACAGCGUGGCAAAGUGGCUGUGGCUAGACUGCCCCUCUGGAUUCCUCGUCACUCAGCACGGCAUCUCUGAGAGAAAUGCC [U100C G125C] it was 1.89; in that of UACGUAGGUGGUUUUCCCCUGAUAGUGCUAAGGGGGCCUGGAAGUUUGGACUGGGCAGAGCUCAACACAGCGUGGCAAAGUGGCUGUGGCUAGACUGCCGCUCUGGAUUCCUCGUUACUCAGCAGGGCAUCUCUGAGAGAAAUGCC [U100G C116U], 1.61; in that of UACGUAGGUGGUUUUCCCCUGAUAGUGCUAAGGGGGCCUGGAAGUUUGGACUGGGCAGAGCUCAACACAGCGUGGCAAAGUGGCUGUGGCUAGACUGCCCCUCUGGAUUCCUCGUCACUCAGCAGGGCACCUCUGAGAGAAAUGCC [U100C U130C], 2.16.
Regarding UACGUAGGUGGUUUUCCCCUGAUAGUGCUAAGGGGGCCUGGAAGUUUGGACUGGGCAGAGCUCAACACAGCGUGGCAAAGUGGCUGUGGCUAGACUGCCCCUCUGGAUUCCUCGUCACUCAGCAGGGCAUCUCUGAGAGAAACGCC [U100C U143C], the self-cleavage was 1.97.
As to UACGUAGGUGGUUUUCCCCUGAUAGUGCUAAGGGGGCCUGGAAGUUUGGACUGGGCAGAGCUCAACACAGCGUGGCAAAGUGGCUGUGGCUAGACUGCCCCUCUGGACUCCUCGUCACUCAGCAGGGCAUCUCUGAGAGAAAUGCC [U100C U108C], the self-cleavage was 2.05.
The figure for UACGUAGGUGGUUUUCCCCUGAUAGUGCUAAGGGGGCCUGGAAGUUUGGACUGGGCAGAGCUCAACACAGCGUGGCAAAGUGGCUGUGGCUAGACUGCCGCUCUGGAUUCCUCGUCACUCAGCAGGGCAUCUCUGAGAGAAAUGCC [U100G] is 1.24; for UACGUAGGUGGUUUUCCCCUGAUAGUGCUAAGGGGGCCUGGAAGUUUGGACUGGGCAGAGCUCAACACAGCGUGGCAAAGUGGCUGUGGCUAGACUGCCCCUCUGGAUUCCUCGUCACUCAUCAGGGCAUCUCUGAGAGAAAUGCC [U100C G122U] it is 1.76.
In the case of UACGUAGGUGGUUUUCCCCUGAUAGUGCUAAGGGGGCCUGGAAGUUUGGACUGGGCAGAGCUCAACACAGCGUGGCAAAGUGGCUGUGGCUAGACUGCCGCUCUGGAUUCCUUGUCACUCAGCAGGGCAUCUCUGAGAGAAAUGCC [U100G C113U] it was 1.49.
In the case of UACGUAGGUGGUUUUCCCCUGAUAGUGCUAAGGGGGCCUGGAAGUUUGGACUGGGCAGAGCUCAACACAGCGUGGCAAAGUGGCUGUGGCUAGACUGCCCCUCUGGAUUCCCCGUCACUCAGCAGGGCAUCUCUGAGAGAAAUGCC [U100C U112C] it was 1.89.
UACGUAGGUGGUUUUCCCCUGAUAGUGCUAAGGGGGCCUGGAAGUUUGGACUGGGCAGAGCUCAACACAGCGUGGCAAAGUGGCUGUGGCUAGACUGCCCCUCCGGAUUCCUCGUCACUCAGCAGGGCAUCUCUGAGAGAAAUGCC [U100C U104C]: the self-cleavage worked out at 2.14.
Regarding UACGUAGGUGGUUUUCCCCUGAUAGUGCUAAGGGGGCCUGGAAGUUUGGACUGGGCAGAGCUCAACACAGCGUGGCAAAGUGGCUGUGGCUAGACUGCCCCUCAGGAUUCCUCGUCACUCAGCAGGGCAUCUCUGAGAGAAAUGCC [U100C U104A], the self-cleavage was 1.37.
In the case of UACGUAGGUGGUUUUCCCCUGAUAGUGCUAAGGGGGCCUGGAAGUUUGGACUGGGCAGAGCUCAACACAGCGUGGCAAAGUGGCUGUGGCUAGACUGCCCCUCUGGAUUCCUCGUCACUCAGCAGUGCAUCUCUGAGAGAAAUGCC [U100C G126U] it was 1.37.
In the case of UACGUAGGUGGUUUUCCCCUGAUAGUGCUAAGGGGGCCUGGAAGUUUGGACUGGGCAGAGCUCAACACAGCGUGGCAAAGUGGCUGUGGCUAGACUGCCCCUCUGGAUUCCUCGUCACUCAGCAGGGCAUCUCUGAGAUAAAUGCC [U100C G139U] it was 2.03; in that of UACGUAGGUGGUUUUCCCCUGAUAGUGCUAAGGGGGCCUGGAAGUUUGGACUGGGCAGAGCUCAACACAGCGUGGCAAAGUGGCUGUGGCUAGACUGCCCCUCUGGAUUCCUCGUCACCCAGCAGGGCAUCUCUGAGAGAAAUGCC [U100C U119C], 1.87; in that of UACGUAGGUGGUUUUCCCCUGAUAGUGCUAAGGGGGCCUGGAAGUUUGGACUGGGCAGAGCUCAACACAGCGUGGCAAAGUGGCUGUGGCUAGACUGCCCCCCUGGAUUCCUCGUCACUCAGCAGGGCAUCUCUGAGAGAAAUGCC [U100C U102C], 1.65.
UACGUAGGUGGUUUUCCCCUGAUAGUGCUAAGGGGGCCUGGAAGUUUGGACUGGGCAGAGCUCAACACAGCGUGGCAAAGUGGCUGUGGCUAGACUGCCCCUCUGGAUUCCUCGUCACUCAGCAGGGCAUCCCUGAGAGAAAUGCC [U100C U132C]: the self-cleavage was determined as 1.67.
In the case of UACGUAGGUGGUUUUCCCCUGAUAGUGCUAAGGGGGCCUGGAAGUUUGGACUGGGCAGAGCUCAACACAGCGUGGCAAAGUGGCUGUGGCUAGACUGCCCCUCUGGAUUCCUCGCCACUCAGCAGGGCAUCUCUGAGAGAAAUGCC [U100C U115C] it was 2.98; in that of UACGUAGGUGGUUUUCCCCUGAUAGUGCUAAGGGGGCCUGGAAGUUUGGACUGGGCAGAGCUCAACACAGCGUGGCAAAGUGGCUGUGGCUAGACUGCCCCUCUGGAUUCCUCGACACUCAGCAGGGCAUCUCUGAGAGAAAUGCC [U100C U115A], 1.87.
